Laboratory results from patent US20140112930A1 (published 2014).

T1: hAng-1-WT (human, UniProt Q15389 20-498, limits assumed)
T1 construct: a tag is not mentioned there; also called full-length wild-type human Ang-1
T1 sequence (looked up): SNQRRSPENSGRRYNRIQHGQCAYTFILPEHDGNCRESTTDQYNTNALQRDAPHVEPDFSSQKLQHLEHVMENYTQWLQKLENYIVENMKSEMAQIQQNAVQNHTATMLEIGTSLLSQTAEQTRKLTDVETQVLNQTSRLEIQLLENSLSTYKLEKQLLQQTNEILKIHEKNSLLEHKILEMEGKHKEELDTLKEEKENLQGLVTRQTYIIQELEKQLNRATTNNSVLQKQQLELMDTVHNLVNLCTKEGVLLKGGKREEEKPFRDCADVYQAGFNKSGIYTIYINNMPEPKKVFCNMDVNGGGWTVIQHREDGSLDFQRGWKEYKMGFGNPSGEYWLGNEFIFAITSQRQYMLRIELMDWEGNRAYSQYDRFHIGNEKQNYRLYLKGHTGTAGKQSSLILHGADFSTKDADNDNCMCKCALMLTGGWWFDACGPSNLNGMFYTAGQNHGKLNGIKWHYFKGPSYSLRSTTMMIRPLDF


Experiments:
[1] = biological target: T1, hAng-1-WT; assay: SPR, 1 uM blocker premixed with 10 nM hAng-1-WT, over hTie-2-mFc surface; RU of hAng-1 bound
Procedure: (§1) In this experiment, a human Tie-2 full-length extracellular domain construct (hTie-2-mFc-ecto) was amine-coupled on a BIACORE™ chip to create a receptor coated surface. […] The equilibrated solutions were injected over the receptor surfaces at 5 μL/min for 5 minutes at 25° C.

[2] = biological target: T1, hAng-1-WT; assay: SPR, 1 uM blocker premixed with 10 nM hAng-1-WT, over hTie-2-mFc surface
Procedure: as §1

[3] = biological target: T2, Biotin-hBA2 (human, biotinylated (sites not given)); assay: blocking ELISA, biotin-hBA2 to hTie-2
T2 construct: hBA2 consists of two dimers; also called biotinylated hBA2; human bow-Ang2
T2 sequence (chain, as listed by the source limits assumed): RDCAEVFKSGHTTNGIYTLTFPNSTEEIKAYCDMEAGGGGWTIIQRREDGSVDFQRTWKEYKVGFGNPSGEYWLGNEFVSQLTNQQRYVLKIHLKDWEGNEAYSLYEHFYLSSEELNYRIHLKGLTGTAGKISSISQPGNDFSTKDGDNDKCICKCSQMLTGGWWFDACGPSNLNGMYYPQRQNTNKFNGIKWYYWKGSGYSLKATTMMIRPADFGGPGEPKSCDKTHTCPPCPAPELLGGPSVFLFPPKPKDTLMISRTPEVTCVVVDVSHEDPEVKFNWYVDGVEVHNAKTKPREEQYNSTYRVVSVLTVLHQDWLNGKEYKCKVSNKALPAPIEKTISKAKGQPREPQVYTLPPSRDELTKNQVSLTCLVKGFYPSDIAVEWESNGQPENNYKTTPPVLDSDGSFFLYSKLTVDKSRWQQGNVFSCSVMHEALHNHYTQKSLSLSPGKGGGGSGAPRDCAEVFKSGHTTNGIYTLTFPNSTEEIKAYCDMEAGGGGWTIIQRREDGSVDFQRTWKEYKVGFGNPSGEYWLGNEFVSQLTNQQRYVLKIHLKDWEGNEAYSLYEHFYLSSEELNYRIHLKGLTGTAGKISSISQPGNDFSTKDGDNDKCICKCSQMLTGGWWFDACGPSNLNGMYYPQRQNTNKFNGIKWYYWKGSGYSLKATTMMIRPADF

[4] = biological target: T3, Human Ang-2FD-hFc (human); assay: blocking ELISA, 16.67 nM antibody, Ang-2FD-hFc to coated hTie-2-mFc
T3 construct: also called dimeric human Ang-2FD; human Ang-2FD protein conjugated to human IgG
T3 sequence (chain, as listed by the source limits assumed): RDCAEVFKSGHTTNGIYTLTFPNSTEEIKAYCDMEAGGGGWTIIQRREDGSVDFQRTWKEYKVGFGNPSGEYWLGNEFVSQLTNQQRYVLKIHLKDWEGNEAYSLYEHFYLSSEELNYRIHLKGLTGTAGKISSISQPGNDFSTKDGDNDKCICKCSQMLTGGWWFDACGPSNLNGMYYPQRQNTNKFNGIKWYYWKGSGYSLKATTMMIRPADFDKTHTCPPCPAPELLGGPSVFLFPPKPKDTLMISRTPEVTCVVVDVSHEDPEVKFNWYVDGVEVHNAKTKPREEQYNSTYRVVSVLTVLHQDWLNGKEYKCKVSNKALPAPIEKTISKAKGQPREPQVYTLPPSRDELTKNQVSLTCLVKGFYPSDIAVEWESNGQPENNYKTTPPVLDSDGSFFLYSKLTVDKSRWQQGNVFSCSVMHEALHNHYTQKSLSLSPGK
Procedure: (§2) The plate was then blocked with PBS (Irvine Scientific, Santa Ana, Calif.) containing 0.5% BSA (Sigma-Aldrich Corp., St. Louis, Mo.) for one hour at room temperature. […] Human, mouse or monkey Ang-2FD protein conjugated to human IgG (Ang-2FD-hFc) were added to final concentrations of 2 nM, 8 nM, or 2 nM respectively and incubated for one hour at room temperature. The antibody/Ang-2FD-Fc mixture was then added to the plate containing hTie-2-mFc and incubated for one hour at room temperature. Detection of Ang-2FD-hFc bound to hTie-2-mFc protein was determined with Horse-Radish Peroxidase (HRP) conjugated to a-human IgG antibody (Jackson Immuno Research Lab, West Grove, Pa.) and developed by standard colorimetric response using tetramethylbenzidine (TMB) substrate (BD Biosciences, San Jose, Calif.). Absorbance was read at OD₄₅₀ for 0.1 sec.

[5] = biological target: T4, Monkey Ang-2FD-hFc (monkey (Macca fascicularis)); assay: as above
T4 construct: also called dimeric monkey Ang-2FD
T4 sequence (chain, as listed by the source limits assumed): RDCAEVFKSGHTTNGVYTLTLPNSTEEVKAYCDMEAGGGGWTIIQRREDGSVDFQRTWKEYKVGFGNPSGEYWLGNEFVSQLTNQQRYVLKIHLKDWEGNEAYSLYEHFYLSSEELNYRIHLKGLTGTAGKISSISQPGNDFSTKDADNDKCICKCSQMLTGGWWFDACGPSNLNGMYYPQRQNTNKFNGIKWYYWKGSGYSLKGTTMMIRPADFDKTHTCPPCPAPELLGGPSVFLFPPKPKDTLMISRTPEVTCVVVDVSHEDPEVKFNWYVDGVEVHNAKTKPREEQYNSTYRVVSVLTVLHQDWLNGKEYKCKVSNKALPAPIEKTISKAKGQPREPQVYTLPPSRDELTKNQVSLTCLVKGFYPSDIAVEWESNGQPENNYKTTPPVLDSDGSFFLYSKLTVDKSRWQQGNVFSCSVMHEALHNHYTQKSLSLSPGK
Procedure: as §2

[6] = biological target: T5, Mouse Ang-2FD-hFc (mouse (Mus musculus)); assay: as above
T5 construct: also called dimeric mouse Ang-2FD
T5 sequence (chain, as listed by the source limits assumed): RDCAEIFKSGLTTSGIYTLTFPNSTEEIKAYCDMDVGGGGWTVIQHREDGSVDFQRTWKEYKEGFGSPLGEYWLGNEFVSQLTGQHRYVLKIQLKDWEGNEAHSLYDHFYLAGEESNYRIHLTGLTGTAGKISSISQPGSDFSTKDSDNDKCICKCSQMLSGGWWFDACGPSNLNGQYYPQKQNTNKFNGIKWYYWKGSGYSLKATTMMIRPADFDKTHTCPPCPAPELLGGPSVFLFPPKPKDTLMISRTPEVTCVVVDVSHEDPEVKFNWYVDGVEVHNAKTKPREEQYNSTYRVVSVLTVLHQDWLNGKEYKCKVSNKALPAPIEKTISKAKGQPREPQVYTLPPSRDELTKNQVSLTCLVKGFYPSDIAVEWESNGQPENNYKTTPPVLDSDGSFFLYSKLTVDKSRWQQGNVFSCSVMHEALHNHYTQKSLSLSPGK
Procedure: as §2

[7] = biological target: T6, Dimeric Mouse Ang-2FD conjugated to human IgG1 (mouse (Mus musculus); human); assay: SPR, captured Ab, RT
T6 construct: also called Mouse Ang-2FD-hFc
Method in brief: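 Antibody captured on amine-coupled goat anti-mouse IgG, anti-human κ or anti-human IgG polyclonal surfaces on a CM5 chip; antigen binding and dissociation followed in real time at room temperature. KD and complex dissociation half-life derived by kinetic analysis.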

[8] = biological target: T6, Dimeric Mouse Ang-2FD conjugated to …; assay: SPR, captured Ab, 37°C
Procedure: (§3) Each selected antibody or control construct was captured at a flow rate of 40 μL/min for 1 minute on a goat anti-human kappa polyclonal antibody surface created through direct chemical coupling to a BIACORE™ chip to form a captured antibody surface.

[9] = biological target: T6, Dimeric Mouse Ang-2FD conjugated to …; assay: SPR, captured Ab, 25°C
Procedure: as §3

Binder	RU (average) [1] [RU]	Percent of Negative Control Binding [2] [%]	IC50 [3] [pM]	Percent Blocking of Ang-2FD Binding to Tie-2 [4] [%]	Percent Blocking of Ang-2FD Binding to Tie-2 [5] [%]	Percent Blocking of Ang-2FD Binding to Tie-2 [6] [%]	Kd [7] [pM]	T1/2 [7] [h]	Kd [8] [pM]	T1/2 [8] [h]	Kd [9] [pM]	T1/2 [9] [h]
H1H706P (antibody, human IgG1, V domains shown, Human IgG1) VH: QVQLVESGGGVVQPGRSLRLSCAASGFTFSSYGMHWVRQAPDKGLEWVAVKWDDGSNKYYADSVKGRFTISRDNSKNTLYLQMNSLRAEDTAVYYCAREGPYDFYSGYGAFDIWGQGTMVTVSS VL: DIQMTQSPSSLSASVGDRVTITCRASQGISNYLAWFQQKPGKAPKSLIYAASSLQSGVPSKFSGSGSGTDFTLTISSLQPEDFATYYCQQYNSYPRTFGQGTKVEIK	140	83	8	97.1	99.8	95.9	–	–	–	–	–	–
H1H724N (antibody, V domains shown) VH: QVQLVESGGGVVQPGRSLRLSCAASGFTLSNYGMHWVRQAPGKGLEWVAVIWHDGSNTYYADSVKGRFTISRDNSKNTLYLQMNSLRAEDTAVYYCTREGLDFWSGYYPNWFDPWGQGTLVTVSS VL: DIQMTQSPSSLSASVGDRVTITCRASQGIRNDLGWYQQKPGKAPKRLIYAASNLQGGVPSRFSGSGSGTEFTLTISSLQPEDFAAYYCLQHNIYPLTFGGGTKVEIK	57	34	4	96.6	96.6	97.1	–	–	–	–	–	–
H1H704P (antibody, V domains shown, Human IgG1) VH: QVQLVESGGDVVQPGRSLRLSCAASGFTFSSYGMHWVRQAPGKGLEWVAIIWYDGSNKYYADSVKGRFTISRDNSKNTLYLQMNSLRVEDTAVYSCARDFSISSRHFDYWGQGTLVTVSS VL: DIQMTQSPSSLSASVGDRVTITCRASQAINNYLAWFQQKPGKAPKSLIYATSNLQSGVPSQFSGSGSGTDYTLTISSLQPEDFATYYCQQYYIYPITFGQGTRLEIK	–	–	56	97	–	41.8	–	–	–	–	–	–
hTie-2-mFc (Fc fusion, also called hTie-2-mFc-ecto; human Tie-2 conjugated to mouse IgG) AMDLILINSLPLVSDAETSLTCIASGWRPHEPITIGRDFEALMNQHQDPLEVTQDVTREWAKKVVWKREKASKINGAYFCEGRVRGEAIRIRTMKMRQQASFLPATLTMTVDKGDNVNISFKKVLIKEEDAVIYKNGSFIHSVPRHEVPDILEVHLPHAQPQDAGVYSARYIGGNLFTSAFTRLIVRRCEAQKWGPECNHLCTACMNNGVCHEDTGECICPPGFMGRTCEKACELHTFGRTCKERCSGQEGCKSYVFCLPDPYGCSCATGWKGLQCNEACHPGFYGPDCKLRCSCNNGEMCDRFQGCLCSPGWQGLQCEREGIPRMTPKIVDLPDHIEVNSGKFNPICKASGWPLPTNEEMTLVKPDGTVLHPKDFNHTDHFSVAIFTIHRILPPDSGVWVCSVNTVAGMVEKPFNISVKVLPKPLNAPNVIDTGHNFAVINISSEPYFGDGPIKSKKLLYKPVNHYEAWQHIQVTNEIVTLNYLEPRTEYELCVQLVRRGEGGEGHPGPVRRFTTASIGLPPPRGLNLLPKSQTTLNLTWQPIFPSSEDDFYVEVERRSVQKSDQQNIKVPGNLTSVLLNNLHPREQYVVRARVNTKAQGEWSEDLTAWTLSDILPPQPENIKISNITHSSAVISWTILDGYSISSITIRYKVQGKNEDQHVDVKIKNATIIQYQLKGLEPETAYQVDIFAENNIGSSNPAFSHELVTLPESQAPADLGGGKGPGEPRGPTIKPCPPCKCPAPNLLGGPSVFIFPPKIKDVLMISLSPIVTCVVVDVSEDDPDVQISWFVNNVEVHTAQTQTHREDYNSTLRVVSALPIQHQDWMSGKEFKCKVNNKDLPAPIERTISKPKGSVRAPQVYVLPPPEEEMTKKQVTLTCMVTDFMPEDIYVEWTNNGKTELNYKNTEPVLDSDGSYFMYSKLRVEKKNWVERNSYSCSVVHEGLHNHHTTKSFSRTPGK	71	42	–	–	–	–	–	–	–	–	–	–
H1H685P (antibody, V domains shown) VH: EVQLVESGGGLVQPGGSLRLSCAASGFTFSSYDIHWVRQATGKGLEWVSAIGPAGDTYYPGSVKGRFTISRENAKNSLYLQMNSLRAGDTAVYYCARGLITFGGLIAPFDYWGQGTLVTVSS VL: EIVLTQSPGTLSLSPGERATLSCRASQSVSSTYLAWYQQKPGQAPRLLIYGASSRATGIPDRFSGSGSGTDFTLTISRLEPEDFAVYYCQHYDNSQTFGQGTKVEIK	–	–	–	–	–	–	148	2.14	93.9	1.07	65.1	3.47
H1H691P (antibody, human IgG1, V domains shown, Human IgG1) VH: EVQLVESGGGLVQPGRSLRLSCAASGFTFDDYAMHWVRQAPGKGLEWVSGISWNSGDIGYADSVKGRFTISRDNAKNSLYLQMNSLRAQDTALYYCAKAYGDYYYFYGMDVWGQGTTVTVS VL: EIVLTQSPGTLSLSPGERATLSCRASQSVSSSYLAWYQQKPGQAPRLLIFSASSRATGIPDRFSGSGSGTDFTLTISRLEPEDFAVYYCQQYDNSLTFGGGTKVEIK	–	–	–	97.4	99.8	96.7	–	–	–	–	–	–
H1H690P (antibody, human IgG1, V domains shown, Human IgG1) VH: EVQLVESGGGLVQPGESLRLSCAASGFTFSSYAMSWVRQGPGKGLEWVSSITGSGDTTYYADSVKGRFTISRDNSKNTLYLHMNSLRAEDTAVYYCAKDFLDYSTYLAFDLWGQGTMVTVSS VL: EIVLTQSPATLSLSPGERATLSCRASQSVSSYLTWYQQKPGQAPRLLSYDASNRATGIPARFSGSGSGTDFTLTISSLEPEDFAVYYCQQRSNWPLTFGGGTKVEIK	–	–	17	97.2	99.6	98	–	–	–	–	–	–
